From article PMC3985343 (The Laryngoscope, 2013)

Target: Wildtype His6-Gαi1 (UniProt P63096 1-354)
Assay: SPR

Chain of Wildtype His6-Gαi1 (P63096 whole entry): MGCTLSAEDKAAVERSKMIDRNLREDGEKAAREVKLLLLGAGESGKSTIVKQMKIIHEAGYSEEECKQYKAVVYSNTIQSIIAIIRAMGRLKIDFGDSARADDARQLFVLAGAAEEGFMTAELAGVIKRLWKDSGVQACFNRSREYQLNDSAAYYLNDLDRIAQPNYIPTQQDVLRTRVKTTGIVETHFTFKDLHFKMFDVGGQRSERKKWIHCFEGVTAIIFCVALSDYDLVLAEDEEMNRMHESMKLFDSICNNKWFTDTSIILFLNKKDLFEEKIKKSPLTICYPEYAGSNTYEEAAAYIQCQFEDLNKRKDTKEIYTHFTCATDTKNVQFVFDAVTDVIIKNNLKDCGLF

Kd: 57 nM
B1: RGS21 (regulator of G protein signaling-21), wildtype, His6 tag cleaved (natural protein, human, UniProt Q2M5E4 1-152, looked up)
chain: MPVKCCFYRSPTAETMTWSENMDTLLANQAGLDAFRIFLKSEFSEENVEFWLACEDFKKTKNADKIASKAKMIYSEFIEADAPKEINIDFGTRDLISKNIAEPTLKCFDEAQKLIYCLMAKDSFPRFLKSEIYKKLVNSQQVPNHKKWLPFL
